Data taken from patent US20250304644A1, “PEPTIDES TRIPLE AGONISTS OF GIP, GLP-1 AND GLP-2” (BAINAN BIOTECH APS, priority 2021, published 2025).
Read-outs that look alike come from different tables or passages of the source. *1 amine or outer side, *2 acyl side, *3 side chain or, on linkers, in order; H or OH if unused. Where no end group is shown, it is not given here. Side-chain parts run from the residue outwards. The star is where a group is joined. C18 diacid = O=C(O)CCCCCCCCCCCCCCCCC(=O)*; γGlu = O=C(O)[C@H](CCC(=O)[*:2])N[*:1]; AEEA = NCCOCCOCC(=O)O

B1: Compound 1 (peptide)
peptide: HXDGTFISDYSTILDNLAARDFINWLIQTKITK
modifications: Aib at position 2; K33 acylated with C10, K(C10); C-terminal amide (-NH2)
B2: Compound 19 (peptide)
peptide: HADGTFTSDYSTILDNLAARDFINWLIQTKGKK([γGlu-C18 diacid])-OH
modifications: N-terminus assumed
SMILES: CC[C@H](C)[C@H](NC(=O)[C@H](Cc1ccccc1)NC(=O)[C@H](CC(=O)O)NC(=O)[C@H](CCCNC(=N)N)NC(=O)[C@H](C)NC(=O)[C@H](C)NC(=O)[C@H](CC(C)C)NC(=O)[C@H](CC(N)=O)NC(=O)[C@H](CC(=O)O)NC(=O)[C@H](CC(C)C)NC(=O)[C@@H](NC(=O)[C@@H](NC(=O)[C@H](CO)NC(=O)[C@H](Cc1ccc(O)cc1)NC(=O)[C@H](CC(=O)O)NC(=O)[C@H](CO)NC(=O)[C@@H](NC(=O)[C@H](Cc1ccccc1)NC(=O)[C@@H](NC(=O)CNC(=O)[C@H](CC(=O)O)NC(=O)[C@H](C)NC(=O)[C@@H](N)Cc1c[nH]cn1)[C@@H](C)O)[C@@H](C)O)[C@@H](C)O)[C@@H](C)CC)C(=O)N[C@@H](CC(N)=O)C(=O)N[C@@H](Cc1c[nH]c2ccccc12)C(=O)N[C@@H](CC(C)C)C(=O)N[C@H](C(=O)N[C@@H](CCC(N)=O)C(=O)N[C@H](C(=O)N[C@@H](CCCCN)C(=O)NCC(=O)N[C@@H](CCCCN)C(=O)N[C@@H](CCCCNC(=O)CC[C@H](NC(=O)CCCCCCCCCCCCCCCCC(=O)O)C(=O)O)C(=O)O)[C@@H](C)O)[C@@H](C)CC
B3: Compound 18 (peptide)
peptide: HADGTFTSDYSTILDNLAAK([AEEA-AEEA-γGlu-C18 diacid])DFINWLIQTKGKK-OH
modifications: N-terminus assumed
SMILES: CC[C@H](C)[C@H](NC(=O)[C@H](Cc1ccccc1)NC(=O)[C@H](CC(=O)O)NC(=O)[C@H](CCCCNC(=O)COCCOCCNC(=O)COCCOCCNC(=O)CC[C@H](NC(=O)CCCCCCCCCCCCCCCCC(=O)O)C(=O)O)NC(=O)[C@H](C)NC(=O)[C@H](C)NC(=O)[C@H](CC(C)C)NC(=O)[C@H](CC(N)=O)NC(=O)[C@H](CC(=O)O)NC(=O)[C@H](CC(C)C)NC(=O)[C@@H](NC(=O)[C@@H](NC(=O)[C@H](CO)NC(=O)[C@H](Cc1ccc(O)cc1)NC(=O)[C@H](CC(=O)O)NC(=O)[C@H](CO)NC(=O)[C@@H](NC(=O)[C@H](Cc1ccccc1)NC(=O)[C@@H](NC(=O)CNC(=O)[C@H](CC(=O)O)NC(=O)[C@H](C)NC(=O)[C@@H](N)Cc1c[nH]cn1)[C@@H](C)O)[C@@H](C)O)[C@@H](C)O)[C@@H](C)CC)C(=O)N[C@@H](CC(N)=O)C(=O)N[C@@H](Cc1c[nH]c2ccccc12)C(=O)N[C@@H](CC(C)C)C(=O)N[C@H](C(=O)N[C@@H](CCC(N)=O)C(=O)N[C@H](C(=O)N[C@@H](CCCCN)C(=O)NCC(=O)N[C@@H](CCCCN)C(=O)N[C@@H](CCCCN)C(=O)O)[C@@H](C)O)[C@@H](C)CC
B4: Compound 26 (peptide)
peptide: HADGTFTSDYSTILDKLAARDFINWLIQTKGKKNDWKHNITQK([AEEA-AEEA-γGlu-C18 diacid])-OH
B5: Compound 23 (peptide)
peptide: HADGTFTSDYSTILDKK([AEEA-AEEA-γGlu-C18 diacid])AARDFINWLIQTKGKKNDWKHNITQ-OH
B6: Compound 24 (peptide)
peptide: HADGTFTSDYSTILDKLAARDFINWLIQTKGKK([AEEA-AEEA-γGlu-C18 diacid])NDWKHNITQ-OH

What was measured:
human SNP-tagged GLP-2R = target: T1, human SNP-tagged GLP-2R (Homo sapiens, UniProt O95838); experiment: Receptor internalization assay, HEK293A cells expressing human SNAP-tagged GLP-2R; type: cell-based; conditions: AUC of sigmoid curves up to 1 μM; 60 minutes at 37° C.
T1 construct: expressed in transfected cells; host or cells: HEK293A
T1 sequence (O95838 1-553): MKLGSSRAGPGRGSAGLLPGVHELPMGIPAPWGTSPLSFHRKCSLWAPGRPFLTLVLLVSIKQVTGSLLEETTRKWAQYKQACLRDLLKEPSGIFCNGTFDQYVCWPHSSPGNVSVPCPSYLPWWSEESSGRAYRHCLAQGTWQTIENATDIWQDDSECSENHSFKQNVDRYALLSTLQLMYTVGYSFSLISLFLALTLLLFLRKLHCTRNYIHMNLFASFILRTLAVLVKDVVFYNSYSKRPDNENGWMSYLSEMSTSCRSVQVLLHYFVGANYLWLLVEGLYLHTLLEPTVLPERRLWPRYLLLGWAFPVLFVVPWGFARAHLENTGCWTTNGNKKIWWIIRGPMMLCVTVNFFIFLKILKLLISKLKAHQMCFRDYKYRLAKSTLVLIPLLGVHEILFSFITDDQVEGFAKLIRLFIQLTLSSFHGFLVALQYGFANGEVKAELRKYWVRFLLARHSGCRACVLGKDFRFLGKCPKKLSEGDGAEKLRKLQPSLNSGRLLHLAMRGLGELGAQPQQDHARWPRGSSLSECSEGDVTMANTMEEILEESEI

human GLP-2R = target: T2, human GLP-2R (Homo sapiens, UniProt O95838); experiment: cAMP assay (HitHunter) in transiently transfected COS-7 cells expressing human GLP-2R; type: cell-based
T2 construct: host or cells: COS-7
T2 sequence (O95838 1-553): T1 sequence (O95838 1-553)

human GIPR = target: T3, human GIPR (Homo sapiens, UniProt P48546); experiment: cAMP assay (HitHunter) in transiently transfected COS-7 cells expressing human GIPR; type: cell-based
T3 construct: host or cells: COS-7
T3 sequence (P48546 22-466): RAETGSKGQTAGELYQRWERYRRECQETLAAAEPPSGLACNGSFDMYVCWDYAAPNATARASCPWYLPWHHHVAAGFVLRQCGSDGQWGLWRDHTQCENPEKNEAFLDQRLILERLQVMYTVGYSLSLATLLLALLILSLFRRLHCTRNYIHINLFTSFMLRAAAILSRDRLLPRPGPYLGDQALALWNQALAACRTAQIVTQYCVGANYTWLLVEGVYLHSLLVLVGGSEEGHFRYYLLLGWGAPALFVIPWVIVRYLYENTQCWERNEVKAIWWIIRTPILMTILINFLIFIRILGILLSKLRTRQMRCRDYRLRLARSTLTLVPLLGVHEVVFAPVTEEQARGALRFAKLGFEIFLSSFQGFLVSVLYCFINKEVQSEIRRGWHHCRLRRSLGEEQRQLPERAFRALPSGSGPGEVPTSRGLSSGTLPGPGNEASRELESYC

human GLP-1R = target: T4, human GLP-1R (Homo sapiens, UniProt P43220); experiment: cAMP assay (HitHunter) in transiently transfected COS-7 cells expressing human GLP-1R; type: cell-based
T4 construct: host or cells: COS-7

human SNAP-tagged GIPR = target: T5, human SNAP-tagged GIPR (Homo sapiens, UniProt P48546); experiment: Receptor internalization assay, HEK293A cells expressing human SNAP-tagged GIPR; type: cell-based; conditions: for Relative hGIPR internalization (%): relative to hGIP 1-42 = 100
T5 construct: host or cells: HEK293A
T5 sequence (P48546 22-466): T3 sequence (P48546 22-466)

[1] = target: T6, Human N-terminally SNAP-tagged GIPR (human, UniProt P48546 22-466, SNAP tag labeled with Tag-Lite SNAP-Lumi4-Tb); experiment: cell-based or functional assay
T6 sequence (looked up): T3 sequence (P48546 22-466)

[2] = target: T7, human GIPR (glucose-dependent insulinotropic polypeptide receptor) (human, UniProt P48546 22-466); experiment: cell-based or functional assay
T7 sequence (looked up): T3 sequence (P48546 22-466)

[3] = target: human GLP-1R (glucagon-like peptide-1 receptor) (human, UniProt P43220 24-463); experiment: cell-based or functional assay
[4] = target: T8, human GLP-2R (glucagon-like peptide-2 receptor) (human, UniProt O95838 1-553); experiment: cell-based or functional assay
T8 sequence (looked up): T1 sequence (O95838 1-553)

[5] = COS-7, normalized to highest concentration of the endogenous ligand, read-out: Efficacy GLP-2R (Emax)
[6] = COS-7, normalized to highest concentration of the endogenous ligand, read-out: Efficacy GIPR (Emax)
[7] = COS-7, normalized to highest concentration of the endogenous ligand, read-out: Efficacy GLP-1R (Emax)
[8] = AUC of sigmoid curves up to 1 μM, 60 minutes at 37° C.

T4 sequence (P43220 24-463): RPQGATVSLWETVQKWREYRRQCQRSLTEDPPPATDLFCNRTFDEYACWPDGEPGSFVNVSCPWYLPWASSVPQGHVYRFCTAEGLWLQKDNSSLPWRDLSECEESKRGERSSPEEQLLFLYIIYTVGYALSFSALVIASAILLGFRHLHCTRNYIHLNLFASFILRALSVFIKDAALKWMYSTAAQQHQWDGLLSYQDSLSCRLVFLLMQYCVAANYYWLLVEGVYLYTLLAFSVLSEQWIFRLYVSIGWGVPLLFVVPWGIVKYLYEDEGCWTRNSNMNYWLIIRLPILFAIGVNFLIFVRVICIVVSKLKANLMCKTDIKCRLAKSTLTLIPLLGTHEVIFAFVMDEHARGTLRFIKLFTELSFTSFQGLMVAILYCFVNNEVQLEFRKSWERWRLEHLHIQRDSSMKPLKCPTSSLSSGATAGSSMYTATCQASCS

Row | Molecule | Absolute hGIPR internalization (AUC) [1] [AUC] | Relative hGIPR internalization (%) [1] [%] | Efficacy GIPR [2] | pEC50 GIPR [2] | EC50 (nM) GLP-1R [3] [nM] | Efficacy GLP-1R [3] | logEC50 GLP-1R [3] | EC50 (nM) GLP-2R [4] [nM] | Efficacy GLP-2R [4] | logEC50 GLP-2R [4] | further results
1 | hGLP-1: native human glucagon-like peptide-1, endogenous GLP-1R ligand; which form (1-37, 7-36, 7-37) not stated [reference compound] | – | – | – | – | – | – | – | – | – | – | Absolute hGLP-2R internalization (AUC) (human SNP-tagged GLP-2R): 48.6
2 | CCCCCCCCCC(=O)NCCCC[C@H](NC(=O)[C@@H](NC(=O)[C@@H](NC(=O)[C@H](CCCCN)NC(=O)[C@@H](NC(=O)[C@H](CCC(N)=O)NC(=O)[C@@H](NC(=O)[C@H](CC(C)C)NC(=O)[C@H](Cc1c[nH]c2ccccc12)NC(=O)[C@H](CC(N)=O)NC(=O)[C@@H](NC(=O)[C@H](Cc1ccccc1)NC(=O)[C@H](CC(=O)O)NC(=O)[C@H](CCCNC(=N)N)NC(=O)[C@H](C)NC(=O)[C@H](C)NC(=O)[C@H](CC(C)C)NC(=O)[C@H](CC(N)=O)NC(=O)[C@H](CC(=O)O)NC(=O)[C@H](CC(C)C)NC(=O)[C@@H](NC(=O)[C@@H](NC(=O)[C@H](CO)NC(=O)[C@H](Cc1ccc(O)cc1)NC(=O)[C@H](CC(=O)O)NC(=O)[C@H](CO)NC(=O)[C@@H](NC(=O)[C@H](Cc1ccccc1)NC(=O)[C@@H](NC(=O)CNC(=O)[C@H](CC(=O)O)NC(=O)C(C)(C)NC(=O)[C@@H](N)Cc1c[nH]cn1)[C@@H](C)O)[C@@H](C)CC)[C@@H](C)O)[C@@H](C)CC)[C@@H](C)CC)[C@@H](C)CC)[C@@H](C)O)[C@@H](C)CC)[C@@H](C)O)C(N)=O [Compound 1] | – | – | – | – | – | – | – | – | – | – | Emax (human GLP-2R; [5]): 96%; EC50 (human GLP-2R; cAMP, COS-7 cells, human GLP-2R, read-out: EC50 (nM) GLP-2R): 2 nM; Emax (human GIPR; [6]): 93%; Emax (human GLP-1R; [7]): 101%; Absolute hGIPR internalization (AUC) (human SNAP-tagged GIPR; [8]): 5.3
3 | HADGTFTSDYSTILDKLAARDFINWLIQTKGKK([AEEA-AEEA-γGlu-C18 diacid])NDWKHNITQ-OH [Compound 24] | – | – | – | – | – | – | – | – | – | – | Emax (human GLP-2R; [5]): 91%; Emax (human GIPR; [6]): 96%; EC50 (human GIPR; cAMP, COS-7 cells, human GIPR): 0.398 nM; Emax (human GLP-1R; [7]): 113%; EC50 (human GLP-1R; cAMP, COS-7 cells, human GLP-1R, read-out: EC50 (nM) GLP-1R): 0.05 nM; Absolute hGIPR internalization (AUC) (human SNAP-tagged GIPR; [8]): 15.0; Relative hGIPR internalization (%) (human SNAP-tagged GIPR): 41%
4 | HADGTFTSDYSTILDKK([AEEA-AEEA-γGlu-C18 diacid])AARDFINWLIQTKGKKNDWKHNITQ [Compound 23] | – | – | – | – | – | – | – | – | – | – | Emax (human GLP-2R; COS-7, read-out: Efficacy GLP-2R (Emax)): 95%; Emax (human GIPR; COS-7, read-out: Efficacy GIPR (Emax)): 82%; EC50 (human GLP-1R): 0.05 nM; Emax (human GLP-1R; COS-7, read-out: Efficacy GLP-1R (Emax)): 105%; Absolute hGIPR internalization (AUC) (human SNAP-tagged GIPR): 1.2; Relative hGIPR internalization (%) (human SNAP-tagged GIPR): 3%
5 | B1 | 5.3 | – | – | – | – | – | – | – | – | – | –
6 | B2 | 8.9 | 24 | 92 | 9.2 | 0.06 | 106 | 10.2 | 31.6 | 94 | 7.5 | –
7 | B3 | 2.1 | – | 82 | – | 0.06 | 112 | 10.2 | – | – | – | –
8 | B4 | 16.4 | 44 | – | – | 0.04 | 103 | 10.4 | 5.6 | 112 | 8.3 | –
9 | B5 | 1.2 | 3 | 82 | 8.2 | 0.05 | 105 | 10.3 | 3.5 | 95 | 8.5 | EC50 (nM) GIPR [2]: 7.08 nM
10 | B6 | 15 | 41 | 96 | 9.4 | 0.05 | 113 | 10.3 | – | – | – | EC50 (nM) GIPR [2]: 0.398 nM
